US20200316120A1 (IMMPACT BIO, published 2020)

Target: HLA-A2 (recombinant, on Raji-HLA-A2 target cells) (human)
Experiment: cell-based or functional assay

inhibition of effector T cells expressing the two CARs at a 1:1 ratio (CD107a figure series): 50% | percent inhibition of CD107a expression on CD8 T cells; 100*(1-(CD107a with Raji-A2/CD107a with Raji)), aCAR to iCAR ratio 1:5: 84%
B1: HLA-A2 iCAR (inhibitory chimeric antigen receptor; HLA-A2 scFv from hybridoma BB7.2 fused to PD-1 hinge, transmembrane and intracellular domains) (receptor)
chain: EQKLISEEDLQVQLQQSGPELVKPGASVKMSCKASGYTFTSYHIQWVKQRPGQGLEWIGWIYPGDGSTQYNEKFKGKTTLTADKSSSTAYMLLSSLTSEDSAIYFCAREGTYYAMDYWGQGTSVTVSSGGGGSGGGGSGGGGSDVLMTQTPLSLPVSLGDQVSISCRSSQSIVHSNGNTYLEWYLQKPGQSPKLLIYKVSNRFSGVPDRFSGSGSGTDFTLKISRVEAEDLGVYYCFQGSHVPRTFGGGTKLEIKTERRAEVPTAHPSPSPRPAGQFQTLVVGVVGGLLGSLVLLVWVLAVICSRAARGTIGARRTGQPLKEDPSAVPVFSVDYGELDFQWREKTPEPPVPCVPEQTEYATIVFPSGMGTSSPARRGSADGPRSAQPLRPEDGHCSWPL
